Assay results taken from the PETadex activity labels (doi:10.1021/acscatal.9b00568).
Residue numbers refer to the chain shown, from its start.

B1: unnamed (protein)
chain: MNFPRASRLMQAAVLGGLMAVSAAATAQTNPYARGPNPTAASLEASAGPFTVRSFTVSRPSGYGAGTVYYPTNAGGTVGAIAIVPGYTARQSSIKWWGPRLASHGFVVITIDTNSTLDQPESRSSQQMAALRQVASLNGTSSSPIYGKVDTARMGVMGWSMGGGGSLISAANNPSLKAAAPQAPWHSSTNFSSVTVPTLIFACENDSIAPVNSSALPIYDSMSRNAKQFLEINGGSHSCANSGNSNQALIGKKGVAWMKRFMDNDTRYSTFACENPNSTAVSDFRTANCS
B2: unnamed (protein)
chain: B1 chain with E121S, H186L, A280R
B3: unnamed (protein)
chain: B1 chain with E121S, H186F, A280R
B4: unnamed (protein)
chain: B1 chain with E121S, H186D, A280R
B5: unnamed (protein)
chain: B1 chain with E121D, A280R

What follows are proteins tested on PET (assay: Proxy for plastic degradation [HPLC-UV]). Conditions: pH 9; 30 °C; 0 h; part of the chain shown.

Protein | Proxy for plastic degradation
B1 | 0 µM
B4 | 0 µM

Same assay, conditions: pH 9; 30 °C; 1 h; part of the chain shown

Protein | Proxy for plastic degradation
B1 | 25 µM
B4 | 5 µM

Same assay, conditions: pH 9; 30 °C; 2 h; part of the chain shown

Protein | Proxy for plastic degradation
B1 | 42 µM
B4 | 7 µM

Same assay, conditions: pH 9; 30 °C; 3 h; part of the chain shown

Protein | Proxy for plastic degradation
B1 | 50 µM
B4 | 10 µM

Same assay, conditions: pH 9; 30 °C; 4 h; part of the chain shown

Protein | Proxy for plastic degradation
B1 | 55 µM
B4 | 11 µM

Same assay, conditions: pH 9; 30 °C; 5 h; part of the chain shown

Protein | Proxy for plastic degradation
B1 | 68 µM
B4 | 11 µM

Same assay, conditions: pH 9; 30 °C; 6 h; part of the chain shown

Protein | Proxy for plastic degradation
B1 | 70 µM
B4 | 12 µM

Same assay, conditions: pH 9; 30 °C; 7 h; part of the chain shown

Protein | Proxy for plastic degradation
B1 | 80 µM
B4 | 14 µM

Same assay, conditions: pH 9; 30 °C; 8 h; part of the chain shown

Protein | Proxy for plastic degradation
B1 | 75 µM
B4 | 15 µM

Same assay, conditions: pH 9; 30 °C; 9 h; part of the chain shown

Protein | Proxy for plastic degradation
B1 | 90 µM
B4 | 13 µM

Same assay, conditions: pH 9; 30 °C; 10 h; part of the chain shown

Protein | Proxy for plastic degradation
B1 | 92 µM
B4 | 15 µM

Same assay, conditions: pH 9; 40 °C; 0 h; part of the chain shown

Protein | Proxy for plastic degradation
B1 | 0 µM
B4 | 0 µM

Same assay, conditions: pH 9; 40 °C; 1 h; part of the chain shown

Protein | Proxy for plastic degradation
B1 | 70 µM
B4 | 11 µM

Same assay, conditions: pH 9; 40 °C; 2 h; part of the chain shown

Protein | Proxy for plastic degradation
B1 | 82 µM
B4 | 10 µM

Same assay, conditions: pH 9; 40 °C; 3 h; part of the chain shown

Protein | Proxy for plastic degradation
B1 | 105 µM
B4 | 10 µM

Same assay, conditions: pH 9; 40 °C; 4 h; part of the chain shown

Protein | Proxy for plastic degradation
B1 | 100 µM
B4 | 10 µM

Same assay, conditions: pH 9; 40 °C; 5 h; part of the chain shown

Protein | Proxy for plastic degradation
B1 | 102 µM
B4 | 7 µM

Same assay, conditions: pH 9; 40 °C; 6 h; part of the chain shown

Protein | Proxy for plastic degradation
B1 | 104 µM
B4 | 8 µM

Same assay, conditions: pH 9; 40 °C; 7 h; part of the chain shown

Protein | Proxy for plastic degradation
B1 | 100 µM
B4 | 9 µM

Same assay, conditions: pH 9; 40 °C; 8 h; part of the chain shown

Protein | Proxy for plastic degradation
B1 | 104 µM
B4 | 8 µM

Same assay, conditions: pH 9; 40 °C; 9 h; part of the chain shown

Protein | Proxy for plastic degradation
B1 | 115 µM
B4 | 7 µM

Same assay, conditions: pH 9; 40 °C; 10 h; part of the chain shown

Protein | Proxy for plastic degradation
B1 | 108 µM
B4 | 8 µM

Same assay, conditions: pH 9; 30 °C; 24 h

Protein | Proxy for plastic degradation
B2 | 2.1 µM
B3 | 6 µM
B5 | 15.2 µM

Same assay, conditions: pH 9; 30 °C; 72 h

Protein | Proxy for plastic degradation
B2 | 3.1 µM
B3 | 11.4 µM
B5 | 23.2 µM

Same assay, conditions: pH 9; 40 °C; 24 h

Protein | Proxy for plastic degradation
B2 | 2 µM
B3 | 7.5 µM
B5 | 28.9 µM

Same assay, conditions: pH 9; 40 °C; 72 h

Protein | Proxy for plastic degradation
B2 | 7.1 µM
B3 | 14.4 µM
B5 | 38.4 µM
